The DeepSol protein solubility set

Experiment: soluble on expression in E. coli; label from the status in PepcDB or PDB records

Soluble on expression in E. coli, soluble:
MSDHFVSERQALILAQLRQSGRVLAQDLAQNFGVSEDTVRRDLREMAARGECLRVYGGALLSDSTTVPLKTRITEDADRKATLARAVVPLIEPGMVVFIDAGSTNLAIARAIPAGLNLTVVTNTPAIAADLTGRADIDLVLIGGKVDPAVGAAIDAMALRQLELMRPDLCVLGVCGVAAETGLSADVFEDAVFKRLACSASQRVIAAITTEKLGHKAAFHVHDFSPPLCLVLERDADRALVESLSAQGVDVYCGEDDAAPFSHGQVLEHHHHHH
SSALIQTPSSLLVQTNHTAKMSCEVKSISKLTSIYWLRERQDPKDKYFEFLASWSSSKGVLYGESVDKKRNIILESSDSRRPFLSIMNVKPEDSDFYFCATVGSPKMVFGTGTKLTVVDVLPTTAPTKKTTLKMKKKKQCPFPHPETQKG
MGSNPPASPLQDNLVIALHSYEPSHDGDLGFEKGEQLRILEQSGEWWKAQSLTTGQEGFIPFNFVAKANSLEPEPWFFKNLSRKDAERQLLAPGNTHGSFLIRESESTAGSFSLSVRDFDQNQGEVVKHYKIRNLDNGGFYISPRITFPGLHELVRHYTNASDGLCTRLSRPCQT
TARKCLLEKVEVITGEEAESNVLQMQCKLFVFDKTSQSWVERGRGLLRLNDMASTDDGTLQSRLVMRTQGSLRLILNTKLWAQMQIDKASEKSIHITAMDTEDQGVKVFLISASSKDTGQLYAALHHRILALRSRVE
SGAVTDDEVIRKRLLIDGDGAGDDRRINLLVKSFIKWCNSGSQEEGYSQYQRMLSTLSQCEFSMGKTLLVYDMNLREMENYEKIYKEIECSIAGAHEKIAECKKQILQAKRIRKNRQEYDALAKVIQHHPDRHETLKELEALGKELEHLSHIKESVEDKLELRRKQFHVLLSTIHELQQTLENDEKLSEVEEAQEASMETDPKP
MEIQFLGTGAGQPAKARNVSSLVLKLLDEINEVWMFDCGEGTQRQILETTIKPRKVKKIFITHMHGDHVFGLPGFLSSRAFQANEEQTDLDIYGPVGIKSFVMTALRTSGSRLPYRIHFHEFDESSLGKIMETDKFTVYAEKLDHTIFCMGYRVVQKDLEGTLDAEALKLAGVPFGPLFGKVKNGENVTLEDGREIIAKDYISEPKKGKVITILGDTRKTDASIRLALGADVLVHESTYGKGDERIAKSHGHSTNMQAADIAKQANAKRLLLNHVSARFMGRDCWQMEEDAKTIFSNTHLVRDLEEVGILEHHHHHH
MSEPVKLRAHTQAHCKDCSLAPLCLPLSLNTDDMDSLDQIVKRGRPLKKGEFLFRQGDTFESVYAVRSGALKTFNISDNGEEQLTGFHLPSELVGLSGMDAEAYPVSAQALETTSVCEIPFERLDELSVQLPQLRRQLMRVMSREIRDDQQMMLLLSKKTADERIATFLINLSARFRARGFSANQFRLSMSRSEIGNHLGLAVETVSRVFTRFQQNQLVSAEGKEIHILAPIELCALAGGAMQS
MYVCLCHAITDTQIKNAVSQGDTSLADVKKRLGVADQCGKCARMAVQIIQNQLEIEPKYYEVA
MFTIKTDDLTHPAVQALVAYHISGMLQQSPPESSHALDVQKLRNPTVTFWSVWEGEQLAGIGALKLLDDKHGELKSMRTAPNYLRRGVASLILRHILQVAQDRCLHRLSLETGTQAGFTACHQLYLKHGFADCEPFADYRLDPHSRFLSLTLCENNELP

Soluble on expression in E. coli, not soluble:
MGSDKIHHHHHHMLDLLNLPGIKPVDMRHESKGLVIVAEPETVEVPLCGGCNTLMHKHGTRKNKFMDTPLYMEPVRLEVQRPRFRCESCGKMSMPELSFLDDKRRATKRLVDVIRQQCLGTTFHALAEQTGVAVNTVKNIAHDLINELSQTVRYETPVIMGIDEVNLAGGYRCVITNLATNNVFDMLEHRTQEHLKPFFKALPDADKVEWVCTDMWRPFKRSFAQYLPNAKLVIDKFHVVKMASEALEVERKNYQAQLSKEDRIYVKKSIRWLTLKRPGNLTPAEQKALEVVKQAIPELAVAYDFKEAFFCIYDELDKQNAQNAFEAWENSLPDQGLVAFKKLAKTVHNHYDDIFAYWDAPFSITNGYTEGLNGLIKMSNRLGRGYGYPIIRAKTLYSKEARKVGSGIRAGHGKVEYGPHIPTLLKQAESGELD
MGSDKIHHHHHHMQGAQSTVDTQSESLNADRSASVDGHPIIVGAFINMYQQLNKDNLFLLRQVYRDDICFRDPMHHVEGIEALTDYFANMYQNVTHIEFDIKEVVISADKQQAALYWTMSYSHPKLSKGQLINVEGMSQLKFSDKIFSHRDYFDLGQMLYEQVPFLGGLIGLLKNRVTK
MSIVVKKWNELAEVKAELAARDWFFATSGNLSIKVTDDPLTFLVTASGKDKRKQTEEDFLLVDAAGKPAEETNLKPSAETLLHAEIYGRTNAGCVLHVHTVDNNLISELYAQNGEAVFSGQEIIKAFGIWEENAAVRIPIIDNYADIPTLAREFANYIHGDAGAVLIQNHGITVWGRTAFEAKKHLEAWEFLFRWQVKRLLLQRAGLPVG
MEALDLLLNRRSIAKLDAPAPQNEALDNILRAGLRAPDHGALTPWRFVVAQGEGLAKLAAILEQAEIANGSDEAVISKAKNAPFRAPMVITVIAKVTHSEKIPAFEQHLSAGCAVQAMQMAAIAQGFQGIWRSGSWMFHPVVRRAFNVQGEDHIVGFLYLGTPGTTAAKVPERELSKYVEYL
MGSDKIHHHHHHMEKEIAIITLHGMGDYKPNYFEALKNQLEKKLGTKWDKIAFEPVQYQPILQQNQIKIWQRMNSYPLDGSILRRFLLFGFSDAGSLEYSARSKVSVQYIEVQKEIMQALDKLYVELGNNDKPVIIIAQSLGCQVISNYIWDAKHDSGIFNGLEPDASAQLKSFRRLNSCVHLLTTGCNIPMFVAGLNPIEAIQKPNNEFTWFNYYDRDDVLGWPLSPLSDSYGALVKDHEINAGGIFSSWNPWSHGQYWTDKDVLNSLIDRIRRYI
MGKTSKYVTAAALCSTIVMGGLHASSVSYAATNPTVATLQSDAKLLNDFKKELKKQIDNREENITITYKTKDRNARNIMDELYGEFNKIVDADEYVKYNIASTRYSIKGLPGNYTFTLQVKYRESKEQTQYVKSQAKAIIGSIVKPGMDEHEKVKAIHDYVVKHVSYDTSYQAYTAYEALANRSAVCQGYTLLTYELLKEAGIQNRIVTGTGNGQAHSWNLVNIENKWYHLDTTFDDPVPDKAGRVTYSYFNMSDEQLSKDHDWDRSKYPAATTSYFNELTNKIKAGSSKTATYEQMLKETNLKYLSAQYGADNYSEFKEKLQQQFASKPEKVEVRYKQSMDGTMQDIKKVLNEINWPKGAKRVSYQVAPYSAMADYSLATITFTY
MPPRKIKKDPAVVAMADTLETRVKDLLEEYKKKLREVALQTAKAESDRIIATIKPKYRDMPIMEFLASPPDDFYIESGEEEEEGEAAVAVKQELPSEPDMEIDDAAAAQKTSIPIGQNSGRNTVQVKQEPEIDDDAAHETSIPIAPSGQNSGRNTAADEHRRNEIITPAGQVLPLPTLQPEKPFRAPHVDEEIAFSVNGSPLVLAGRTTATAAGKENRKKSKKSGAASKKAAAAAGPLQPETENAGTSV
TIVDLEDNVLVIGFGRFSQIVCQTLLIRGISVSVIDRNIENIRAAAKFGFKVYYGDGIRLDVLRAAGIEKAKCVVLGINDTQRIEHIVSQMKEAYPNLPILTRTYDRKTTVSLIKQDVDFIVRETFESAITLSRATLMKLGID
MGSDKIHHHHHHMIEVQKQIDLDLELDIYKKLLEDNILFFDIETTGFDKEKEKVVLISGGWFLQDKKFVIKQYFAESLDEEVQVLKAFKEDVTKFNSWCSYNGKAFDEPFIKKRMNINNIEFTPPREHIDLYRIIRPYYKQLGMERCNLKSVEKYLGIHRADKIDGGISVELYYNFLDTKDERLRYVIMLHNYEDVLNLPSIFKLTYDIEKNDTLKREGGITKKQLDYLRFLMKKNNIQVTDDLKKISKKSASRIIDSILRGNIDIDKFNAIIKDSY
MGSDKIHHHHHHMGIKYSFTRELRTELIDVDKVFKENLLPWWDDIYNYIKMLNEDFTWNQLPPLVYIVYRYLGLDRSISISMTNIFKTLYLANSIHGMVKDDKEGQKYDQDLQFAILIGDYMFGRMLKLLVEAGADKLVGLFAVMMAEINEGQVMERKLQAAHKDVLQKTRGSIYATAFETAGHLSGMKGILLENCRQLGLNLGMSIELMNCDISREEVLVYIHEAERNYKIINQYQRMVNSNLEAAINEVHSLLCNIENVAVV
MSERDAIRAFSHMLETIFVRMRAEGTGSQTDAMQRWLDLYNVGSLPIDKKSYKALRLMDRETTDQQKEDATCAICLDNLQNNVDIPEDHVIKEELKIDPTTFGTTVIVMPCKHRFHYFCLTLWLEAQQTCPTCRQKVKTDKEVEEEERQRNLEELHDSMYG
MTDQPDVQRVQTASRDNSTVIDLREYKTNKDPLPVTFHRRELDAILRIYGRMVGEGEWRDYAIDHLKEKAVFSVFKRSGEMPLYRIEKNPKLATKQGAYCVVNVDGRILKRGHELPQVLKVFDKVLKLIE
MNNTEPWKKYVPETVSLYHVDYRENLNEREDLQEQCIRNNNMERLYETVMECYAEQEAESLLKILGEIKEKMAEEKRQEEFEEHREEITDLILSRSDTDPAEELIKNSAAVNMYYSPGEKIEERIGKASKTMSCYKVRRALKLKKGQFDTLIEELVDNATYGGELRIYFNAGFNELVTNDNGKDFRTIRFHRDVIVAVANSFNGSGYHISLPLDITFPFVRDRLFVDSQVRYSYATEVCGMCRDWCDSTSWETEYKTVRNTSRNRQKEKTLSTN
MGSDKIHHHHHHMADFSNQIITIKKGLDLPIAGEPRQIIESGNKPSQVAILGEEYVGLKPTMLVEVGDKVKKGQPLFEDKKTKGVLFTAPASGEIVAINRGDRRVLQSVVIGCDGLDVNEQIRFDILPDVISLSRQVVQDQLVSSGLWTALRTRPFSRVPALDSQPAGIFVTAIDTNPLAADPRLIIAEQLEAFKTGLQVLTRLTEGKVYLCQDKGDAIACDVSPNLEIRRFTGVHPAGLAGTHIHFTLPVSLERQVWHIGYQDVIAYGKLFQTGELYTDRIIALGGPSVLNPRLLRTQLGAELSVLVADEIKPGNNRVVSGSVLSGHTAAGVHDFLGRFHNQVSVLAEDAQHQVLPWVRGGSDKFSITRAVTSRLFGASKRFEFTTHQGGSQRAMMAFGQLDRVMPLDILPTLLVRDLVVRDTDEAQALGALELDEEDLALCTFVCPGKYDFGKELRACLDVIEREG
MAHHHHHHMAVPHGMLISRNDITPDSLVDVPGDRKIVEQISNTMANSSLFKMEKEDHTLANLLRMKLHESPFVQIAGYRVPHPTKHNVELRVQTASNGTDAPVPAPKKALQDAVDGCLKDLEVFEEQLRREAQLKGLEASPS
MQLTAKASLTNALLISICTPDFKGDEATESLAELARLVTTLGFKVVGTQSQKQSSTKKVNVLGLGKLAEIAHLTGNQGEVEDMEEVEDLSVGEQTDDVEFMVNSSDIPSDNLPFACADVVVFDCDLSPSQLRNVENQLGVEVFDRTGIIIEIFSRHARTKTAKLQVEIARLNYVAPRLRETSCGDKERQMGKGAGETTLELNRRAVRDQLAELKRELVSVQHEMKGRRTQRSELFCVALVGYTNAGKSSMMRAITGSDVEGENKLFATLDTTVRALFPITQPRILVSDTVGFIKKLPHDLVASFHSTLAEAQDASLLLYVVDASDPSFRAQLDVVHEVLDEVGVEDSKKLLVLNKSDQLSIEQQQALMEEFPNAMMTSARNPADVSKLHKYIVGIAQEEMIEEEIIVPYTANGIIGEIRSRMSVTKEEYENSHIKLTVRSNAIDLARLKKRMLSLLEHHHHHH
